Data on one molecule can be found in publication PMC2763353.

What all share (assay): EMSA
The target in series [1] is GABPα(311-430);GABPβ1(1-157) (;, UniProt Q00422;Q00420 311-430;1-157, |).
In the next series the target is Pax5(1-149) WT (human, UniProt Q02548 1-149).
In another series the target is Pax5(1-149) Q22A (human, UniProt Q02548 1-149, Q22A).
Another series addresses T1, Ets-1(280-440) (murine, UniProt P27577 280-440).
T1 sequence: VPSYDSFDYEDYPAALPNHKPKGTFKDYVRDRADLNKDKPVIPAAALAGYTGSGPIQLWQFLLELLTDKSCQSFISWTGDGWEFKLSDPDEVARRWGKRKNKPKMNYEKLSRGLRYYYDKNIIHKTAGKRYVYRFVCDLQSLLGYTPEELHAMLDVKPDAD

In the next series the target is T2, Ets-1(331-440) (murine, UniProt P27577 331-440).
T2 sequence: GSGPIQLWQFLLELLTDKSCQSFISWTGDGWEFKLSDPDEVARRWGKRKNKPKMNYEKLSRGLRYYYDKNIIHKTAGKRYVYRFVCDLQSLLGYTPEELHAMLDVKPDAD

Series [2] has as its target Pax5(1-149) WT;Ets-1(280-440) (human;murine, UniProt Q02548;P27577 1-149;280-440, |).
Series [3] has as its target Pax5(1-149) WT;GABPα(311-430) (human;, UniProt Q02548;Q00422 1-149;311-430, |).
Series [4] deals with Pax5(1-149) WT;GABPα(311-430);GABPβ1(1-157) (human;;, UniProt Q02548;Q00422;Q00420 1-149;311-430;1-157, ||).
Pax5(1-149) WT;GABPα(311-430);GABPβ1(1-157), sequence (Q02548 1-149, chain 1 of 3): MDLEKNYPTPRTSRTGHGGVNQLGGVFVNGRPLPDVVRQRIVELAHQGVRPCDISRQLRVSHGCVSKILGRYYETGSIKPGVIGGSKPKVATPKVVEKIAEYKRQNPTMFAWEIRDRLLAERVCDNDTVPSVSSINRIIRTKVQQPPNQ
Pax5(1-149) WT;GABPα(311-430);GABPβ1(1-157), sequence (Q00422 311-430, chain 2 of 3): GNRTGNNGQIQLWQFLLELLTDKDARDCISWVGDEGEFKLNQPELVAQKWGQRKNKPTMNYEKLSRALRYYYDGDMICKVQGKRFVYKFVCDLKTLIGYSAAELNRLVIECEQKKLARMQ
Pax5(1-149) WT;GABPα(311-430);GABPβ1(1-157), sequence (Q00420 1-157, chain 3 of 3): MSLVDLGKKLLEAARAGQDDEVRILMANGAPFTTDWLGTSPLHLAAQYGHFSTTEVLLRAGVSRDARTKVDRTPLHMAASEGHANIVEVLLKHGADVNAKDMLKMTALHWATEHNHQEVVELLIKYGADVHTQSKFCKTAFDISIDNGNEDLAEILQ
The target in series [5] is Pax5(1-149) Q22A;Ets-1(331-440) (human;murine, UniProt Q02548;P27577 1-149;331-440, Q22A|).
Pax5(1-149) Q22A;Ets-1(331-440), sequence (Q02548 1-149 Q22A, one chain of several): as the sequence (Q02548 1-149, chain 1 of 3) above, with Q22A counted along it
Series [6] has as its target Pax5(1-149) Q22A;Ets-1(280-440) (human;murine, UniProt Q02548;P27577 1-149;280-440, Q22A|).
The target in series [7] is Pax5(1-149) Q22A;GABPα(311-430) (human;, UniProt Q02548;Q00422 1-149;311-430, Q22A|).
Pax5(1-149) Q22A;GABPα(311-430), sequence (Q02548 1-149 Q22A, chain 1 of 2): as the sequence (Q02548 1-149, chain 1 of 3) above, with Q22A counted along it
Pax5(1-149) Q22A;GABPα(311-430), sequence (Q00422 311-430, chain 2 of 2): as the sequence (Q00422 311-430, chain 2 of 3) above
In series [8] the target is Pax5(1-149) Q22A;GABPα(311-430);GABPβ1(1-157) (human;;, UniProt Q02548;Q00422;Q00420 1-149;311-430;1-157, Q22A||).
Pax5(1-149) Q22A;GABPα(311-430);GABPβ1(1-157), sequence (Q02548 1-149 Q22A, chain 1 of 3): as the sequence (Q02548 1-149, chain 1 of 3) above, with Q22A counted along it
Pax5(1-149) Q22A;GABPα(311-430);GABPβ1(1-157), sequence (Q00422 311-430, chain 2 of 3): as the sequence (Q00422 311-430, chain 2 of 3) above
Pax5(1-149) Q22A;GABPα(311-430);GABPβ1(1-157), sequence (Q00420 1-157, chain 3 of 3): as the sequence (Q00420 1-157, chain 3 of 3) above
Series [9] deals with Pax5(1-149) WT;Ets-1(331-440) (human;murine, UniProt Q02548;P27577 1-149;331-440, |).
Pax5(1-149) WT;Ets-1(331-440), sequence (Q02548 1-149, chain 1 of 2, one chain of several): as the sequence (Q02548 1-149, chain 1 of 3) above

GABPα(311-430);GABPβ1(1-157), sequence (Q00422 311-430, chain 1 of 2): as the sequence (Q00422 311-430, chain 2 of 3) above
GABPα(311-430);GABPβ1(1-157), sequence (Q00420 1-157, chain 2 of 2): as the sequence (Q00420 1-157, chain 3 of 3) above
Pax5(1-149) WT;GABPα(311-430), sequence (Q02548 1-149, chain 1 of 2): as the sequence (Q02548 1-149, chain 1 of 3) above
Pax5(1-149) WT;GABPα(311-430), sequence (Q00422 311-430, chain 2 of 2): as the sequence (Q00422 311-430, chain 2 of 3) above
Pax5(1-149) WT;Ets-1(280-440), sequence (Q02548 1-149, chain 1 of 2, one chain of several): as the sequence (Q02548 1-149, chain 1 of 3) above
Pax5(1-149) WT, sequence (Q02548 1-149): as the sequence (Q02548 1-149, chain 1 of 3) above
Pax5(1-149) Q22A, sequence (Q02548 1-149 Q22A): as the sequence (Q02548 1-149, chain 1 of 3) above, with Q22A counted along it
Pax5(1-149) Q22A;Ets-1(280-440), sequence (Q02548 1-149 Q22A, chain 1 of 2, one chain of several): as the sequence (Q02548 1-149, chain 1 of 3) above, with Q22A counted along it

B1: P5-EBS probe (dsDNA)
DNA 1: TCGAAGGGCCACTGGAGCCCATCTCCGGCACGGC
DNA 2: TCGAGCCGTGCCGGAGATGGGCTCCAGTGGCCCT
Regarding B1, the dissociation constant Kd in series [1] amounted to 234 ± 24.8 nM; with Pax5(1-149) WT, 2.4 ± 0.47 nM; with Pax5(1-149) Q22A, 1.72 ± 0.37 nM; with Ets-1(331-440), 136 ± 5.29 nM; in series [2] it was 0.49 ± 0.05 nM; in series [3], 17.8 ± 0.74 nM. In addition, the Kd in series [4] was 4.08 ± 0.38 nM; in series [5] it was 7.89 ± 0.76 nM; in series [6], 162 ± 44.3 nM; in [7], 6.14 ± 5.38 nM; in series [8], 3.36 ± 0.14 nM; in series [9], 0.89 ± 0.14 nM. Further, the binding result in the series with Ets-1(280-440) is on record as “no binding”.

As usually defined, the Kd is the concentration at which binding is half-saturated. Low values mean higher affinity, high ones lower affinity.
